Results taken from PMC4726456.

Biological target: 15-residue tubulin peptide

- acetylation activity kept with a 15-residue tubulin peptide (data not shown): 89 % activity
Substance: F105A TAT mutant (from UniProt Q5SQI0 1-421) (enzyme)
